Results on two substances are retold here after patent US20230365641A1.

In experiment [1] the target is PD-1 (antigen of the ELISA and of the in vitro affinity measurement) (UniProt Q15116). Description: ELISA. Set-up: Bmax: unit not given here.
A further experiment deals with hPD1-mFc (human). Description: kinetic binding table: huPDL1-hFc captured as ligand (capture level 53.4 RU), hPD1-mFc as sample; method not given.
Chain of hPD1-mFc (human) (Q15116 25-170): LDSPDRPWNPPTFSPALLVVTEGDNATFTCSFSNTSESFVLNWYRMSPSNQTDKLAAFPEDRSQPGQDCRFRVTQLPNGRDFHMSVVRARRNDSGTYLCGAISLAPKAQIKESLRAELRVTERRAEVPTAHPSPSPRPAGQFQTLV

Chain of PD-1 (antigen of the ELISA and of the in vitro affinity measurement) (Q15116 25-167 limits assumed): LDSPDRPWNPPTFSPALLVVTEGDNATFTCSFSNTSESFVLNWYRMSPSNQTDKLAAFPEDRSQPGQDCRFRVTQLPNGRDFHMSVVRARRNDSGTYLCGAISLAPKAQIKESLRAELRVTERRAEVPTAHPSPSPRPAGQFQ

As a reminder, the Kd is the constant that tells how readily two partners part at equilibrium. With XR034 (Pembro IgG) (antibody), in experiment [1], the Bmax was 1.37 and the Kd is 0.32 nM.

In general, koff refers to the first-order rate constant of dissociation. By kon is commonly meant a measure of how fast the partners come together. As to “huPDL1-hFc (from UniProt Q9NZQ7) (Fc fusion)”, in the experiment with hPD1-mFc (human), the Kd amounted to 74.1 nM, the koff stood at 0.025 s⁻¹ and the kon turned out to be 338000 M⁻¹ s⁻¹.
